# According to article PMC5593947 (2017):
# T1: Coxsackievirus A6 (CVA6) A-particle (Coxsackievirus A6 strain TW-2007-00141)
# T1 chain 1: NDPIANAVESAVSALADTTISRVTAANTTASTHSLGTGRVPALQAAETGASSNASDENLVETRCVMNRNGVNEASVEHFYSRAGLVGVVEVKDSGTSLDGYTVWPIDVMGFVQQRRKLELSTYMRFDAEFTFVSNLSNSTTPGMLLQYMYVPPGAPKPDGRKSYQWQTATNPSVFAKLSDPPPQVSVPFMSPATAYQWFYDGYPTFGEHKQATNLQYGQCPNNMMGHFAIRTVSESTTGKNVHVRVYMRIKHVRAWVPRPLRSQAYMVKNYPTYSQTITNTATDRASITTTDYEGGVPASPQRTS
# T1 chain 2: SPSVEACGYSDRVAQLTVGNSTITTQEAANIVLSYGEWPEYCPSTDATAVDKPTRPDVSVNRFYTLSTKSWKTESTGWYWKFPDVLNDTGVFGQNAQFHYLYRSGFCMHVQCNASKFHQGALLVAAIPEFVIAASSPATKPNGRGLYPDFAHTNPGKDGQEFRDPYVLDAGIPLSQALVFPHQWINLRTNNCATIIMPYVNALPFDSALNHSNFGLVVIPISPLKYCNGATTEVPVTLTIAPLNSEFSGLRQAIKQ
# T1 chain 3: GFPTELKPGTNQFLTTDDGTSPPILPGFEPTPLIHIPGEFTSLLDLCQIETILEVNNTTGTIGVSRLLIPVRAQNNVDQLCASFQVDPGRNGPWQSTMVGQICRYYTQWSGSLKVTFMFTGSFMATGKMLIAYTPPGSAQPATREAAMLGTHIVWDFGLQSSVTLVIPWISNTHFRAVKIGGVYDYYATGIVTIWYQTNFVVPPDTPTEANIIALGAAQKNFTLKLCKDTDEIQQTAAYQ
# T2: Coxsackievirus A6 (CVA6) procapsid (Coxsackievirus A6 strain TW-2007-00141)
# T2 chain 1: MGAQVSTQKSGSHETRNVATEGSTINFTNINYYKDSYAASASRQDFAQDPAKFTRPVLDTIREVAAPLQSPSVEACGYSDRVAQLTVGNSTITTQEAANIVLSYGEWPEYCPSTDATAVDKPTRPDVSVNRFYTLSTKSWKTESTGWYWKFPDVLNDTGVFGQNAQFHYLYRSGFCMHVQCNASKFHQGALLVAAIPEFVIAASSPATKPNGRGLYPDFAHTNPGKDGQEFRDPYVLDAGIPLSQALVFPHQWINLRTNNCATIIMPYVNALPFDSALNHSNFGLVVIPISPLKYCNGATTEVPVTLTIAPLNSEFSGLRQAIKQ
# T2 chain 2: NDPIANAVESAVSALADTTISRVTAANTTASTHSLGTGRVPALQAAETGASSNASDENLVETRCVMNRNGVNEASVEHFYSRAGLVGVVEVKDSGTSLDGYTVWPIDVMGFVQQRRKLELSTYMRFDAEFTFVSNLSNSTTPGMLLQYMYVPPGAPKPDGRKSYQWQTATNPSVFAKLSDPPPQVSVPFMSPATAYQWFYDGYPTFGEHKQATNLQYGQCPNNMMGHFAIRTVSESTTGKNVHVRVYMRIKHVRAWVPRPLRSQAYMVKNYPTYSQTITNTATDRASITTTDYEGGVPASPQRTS
# T2 chain 3: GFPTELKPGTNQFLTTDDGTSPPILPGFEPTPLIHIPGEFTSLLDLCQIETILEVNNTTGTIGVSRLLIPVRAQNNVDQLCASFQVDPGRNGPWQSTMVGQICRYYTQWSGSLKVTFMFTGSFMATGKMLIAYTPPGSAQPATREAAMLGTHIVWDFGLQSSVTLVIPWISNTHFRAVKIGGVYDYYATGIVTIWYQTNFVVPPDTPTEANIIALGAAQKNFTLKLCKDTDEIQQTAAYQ
# Key:
# [1] = target: T1, Coxsackievirus A6 (CVA6) A-particle; assay: SPR
# [2] = target: T1, Coxsackievirus A6 (CVA6) A-particle; assay: SPR
# [3] = target: T2, Coxsackievirus A6 (CVA6) procapsid; assay: ELISA
# [4] = target: T1, Coxsackievirus A6 (CVA6) A-particle; assay: SPR
binder,measurement,setting,value
"neutralizing monoclonal antibody 1D5 (antibody, V domains shown) VH: EVQLVESGGGLVKPGGSLKLSCAASGFAFSTYDMSWVRQTPEKRLELVAHISSGGGYIYYPDTVKGRFTISRDNAKNTLYLQMSSLKSEDTAMYYCTRQKGLYYGFDYWGQGTTLTVSS VL: DIVMTQSHKFMSTSVGDRVSITCKASQDVNTAVAWYQQRPGQSPKLLIYSASYRYTGVPDRFTGSGSGTDFTFTISSVQAEDLAVYYCQQHYTTPHTFGGGTKLEIK",Ka,[1],2.41e+08 M⁻¹
same,koff,[2],0.000634 s⁻¹
same,EC50,[3],0.069 µg/mL
same,Kd,[4],4.14 nM
